Laboratory results reported in article PMC6153374.

Target: E. coli derived recombinant CRM197 (cross reacting material 197) (Corynebacterium diphtheriae C7 (β197))
Experiment: crystal structure; sitting drop, room temperature; 22.9 mg/ml protein in 0.15 M NaCl, 0.01 M Tris/HCl pH 8.3 mixed 1:1 with 0.2 M lithium sulfate, 0.1 M Bis-Tris pH 5.5, 25% (w/v) PEG 3350; data at 100 K; four molecules in the asymmetric unit (two domain-swapped dimers)

Substance: E. coli derived recombinant CRM197 (cross reacting material 197) (natural protein)
- stoichiometry N: 2
